Data published in patent publication US20190010233A1 (JIANGSU HYAMAB PHARMACEUTICAL, published 2019).
Where two headings read alike, the source gives them in different places.

How the values were obtained:
[1] = molecular target: T1, human PD-L1^ECD-hFc protein (human, UniProt Q9NZQ7 19-239, biotinylated in the PD-1 binding ELISA (Table 3) and in the Octet assay (Table 12)); experiment: ELISA, 30 nM mAb
T1 construct: The plain and the biotinylated protein are kept as one molecule; also called PD-L1-hFc; Immunogen A; not shown: human IgG Fc fragment (hFc)

[2] = molecular target: T1, human PD-L1^ECD-hFc protein; experiment: ELISA, 0.0003 nM mAb
[3] = molecular target: T1, human PD-L1^ECD-hFc protein; experiment: ELISA, 3 nM mAb
[4] = molecular target: T2, cyno PD-L1^ECD-hFc protein (cyno, UniProt G7PSE7 19-239); experiment: ELISA, 0.03 nM mAb
T2 construct: also called Cyno Monkey PD-L1^ECD-hFc

[5] = molecular target: T3, full length human PD-L1 on cells (human, UniProt Q9NZQ7 19-290); experiment: cell-based or functional assay
[6] = molecular target: T1, human PD-L1^ECD-hFc protein; experiment: ELISA, 0.00003 nM mAb
[7] = molecular target: T1, human PD-L1^ECD-hFc protein; experiment: ELISA receptor-ligand blocking assay: PD-L1 protein coated, fully human antibody titrated, blocked ligand PD-1, inhibition rate (%)
[8] = molecular target: T3, full length human PD-L1 on cells; experiment: cell-based or functional assay; remark: listed apart in the source
[9] = molecular target: T1, human PD-L1^ECD-hFc protein; experiment: ELISA, 0.3 nM mAb
[10] = molecular target: T1, human PD-L1^ECD-hFc protein; experiment: ELISA receptor-ligand blocking assay: PD-L1 protein coated, fully human antibody titrated, blocked ligand B7.1, inhibition rate (%)
[11] = molecular target: T2, cyno PD-L1^ECD-hFc protein; experiment: ELISA, 0.00003 nM mAb
[12] = molecular target: T1, human PD-L1^ECD-hFc protein; experiment: ELISA, 0.003 nM mAb
[13] = molecular target: T3, full length human PD-L1 on cells; experiment: cell-based or functional assay; remark: listed apart in the source
[14] = molecular target: T1, human PD-L1^ECD-hFc protein; experiment: ELISA, 0.03 nM mAb
[15] = molecular target: T2, cyno PD-L1^ECD-hFc protein; experiment: ELISA, 3 nM mAb
[16] = molecular target: T2, cyno PD-L1^ECD-hFc protein; experiment: ELISA, 0.003 nM mAb
[17] = molecular target: T2, cyno PD-L1^ECD-hFc protein; experiment: ELISA, 30 nM mAb
[18] = molecular target: T2, cyno PD-L1^ECD-hFc protein; experiment: ELISA, 0.3 nM mAb
[19] = molecular target: T2, cyno PD-L1^ECD-hFc protein; experiment: ELISA, 0.0003 nM mAb
[20] = molecular target: T3, full length human PD-L1 on cells; experiment: cell-based or functional assay; remark: listed apart in the source
[21] = molecular target: T3, full length human PD-L1 on cells; experiment: cell-based or functional assay; remark: listed apart in the source

T1 sequence (Q9NZQ7 19-239): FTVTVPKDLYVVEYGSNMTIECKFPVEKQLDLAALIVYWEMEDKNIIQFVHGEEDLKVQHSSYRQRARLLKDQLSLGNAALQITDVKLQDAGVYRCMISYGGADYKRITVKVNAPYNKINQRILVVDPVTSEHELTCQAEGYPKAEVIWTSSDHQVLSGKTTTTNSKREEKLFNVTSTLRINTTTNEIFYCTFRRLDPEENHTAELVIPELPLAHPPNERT
T3 sequence (Q9NZQ7 19-290 limits assumed): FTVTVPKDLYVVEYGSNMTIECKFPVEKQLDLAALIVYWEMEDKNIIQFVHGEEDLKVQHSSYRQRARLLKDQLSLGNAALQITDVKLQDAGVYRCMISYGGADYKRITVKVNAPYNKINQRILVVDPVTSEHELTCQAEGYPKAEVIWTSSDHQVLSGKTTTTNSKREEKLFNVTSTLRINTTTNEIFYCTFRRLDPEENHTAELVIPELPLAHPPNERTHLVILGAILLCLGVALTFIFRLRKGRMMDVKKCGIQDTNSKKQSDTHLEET
T2 sequence (G7PSE7 entry or part of it limits assumed): as the sequence (Q9NZQ7 19-239) above, with A33T, A34S, S62N, R68Q, Q82R, F173L, T185A, T192I, H215L counted along it

OD450 nm [1] | OD450 nm [2] | OD450 nm [3] | OD450 nm [4] | OD450 nm [6] | IC50 (read off the curve) [7] [nM] | OD450 nm [9] | IC50 (read off the curve) [10] [nM] | OD450 nm [11] | OD450 nm [12] | OD450 nm [14] | OD450 nm [15] | OD450 nm [16] | OD450 nm [17] | OD450 nm [18] | OD450 nm [19] | IFN-γ (pg/mL), T cell stimulation assay, 0.001 µg/mL mAb [20] [pg/mL] | IFN-γ (pg/mL), T cell stimulation assay, 0.01 µg/mL mAb [20] [pg/mL] | IFN-γ (pg/mL), T cell stimulation assay, 0.1 µg/mL mAb [20] [pg/mL] | IFN-γ (pg/mL), T cell stimulation assay, 1 µg/mL mAb [20] [pg/mL] | Binder | other results
2.59 | 0.285 | 2.67 | 0.953 | 0.287 | ~1 | 2.52 | ~0.8 | 0.324 | 0.322 | 0.786 | 2.66 | 0.376 | 2.54 | 2.55 | 0.348 | 6150 | 13100 | 11500 | 15200 | fully human anti-PD-L1 antibody 192D9E7 (antibody, human IgG4 S228P, kappa, V domains shown, also called 192D9E7 (fully human); 192D9F7) VH: EVQLVESGGGLVQPGGSLRLSCAASGFTFSSYWMSWVRQAPGKGLEWVADIKQDGSEKYYVDSVKGRFTISRDNAKNSLYLQMNSLRAEDTAVYYCTRDKPHWGGVMDAWGQGTSVTVSS VL: not shown | IL-2 (pg/mL), MLR, 0.001 µg/mL mAb [5]: 210 pg/mL; IL-2 (pg/mL), MLR, 0.01 µg/mL mAb [5]: 341 pg/mL; IL-2 (pg/mL), MLR, 0.1 µg/mL mAb [5]: 713 pg/mL; IL-2 (pg/mL), MLR, 1 µg/mL mAb [5]: 721 pg/mL; IL-2 (pg/mL), MLR, 10 µg/mL mAb [5]: 770 pg/mL; IFN-γ (pg/mL), MLR, 0.001 µg/mL mAb [8]: 592 pg/mL; IFN-γ (pg/mL), MLR, 0.01 µg/mL mAb [8]: 915 pg/mL; IFN-γ (pg/mL), MLR, 0.1 µg/mL mAb [8]: 1870 pg/mL; IFN-γ (pg/mL), MLR, 1 µg/mL mAb [8]: 2760 pg/mL; IFN-γ (pg/mL), MLR, 10 µg/mL mAb [8]: 2270 pg/mL; IFN-γ (pg/mL), MLR, 0.001 µg/mL mAb [13]: 9030 pg/mL; IFN-γ (pg/mL), MLR, 0.01 µg/mL mAb [13]: 11200 pg/mL; IFN-γ (pg/mL), MLR, 0.1 µg/mL mAb [13]: 19600 pg/mL; IFN-γ (pg/mL), MLR, 1 µg/mL mAb [13]: 22900 pg/mL; IFN-γ (pg/mL), MLR, 10 µg/mL mAb [13]: 15500 pg/mL
2.67 | 0.254 | 2.72 | 1 | 0.256 | ~1 | 2.48 | ~0.9 | 0.308 | 0.403 | 0.855 | 2.65 | 0.358 | 2.6 | 2.52 | 0.283 | 6780 | 10900 | 13100 | 13500 | fully human anti-PD-L1 antibody 73G11B3 (antibody, human IgG4 S228P, kappa, V domains shown, also called 73G11B3 (fully human)) VH: EVQLVESGGGLVQPGGSLRLSCVVSGFTFSSYWMSWVRQTPGKGLEWVANIKQDGSEKYYVDSVKGRLTISRDNAKNSLYLQMNSLRAEDTAVYYCVRDRAVPGTGALDIWGQGTMVTVSS VL: not shown | IL-2 (pg/mL), MLR, 0.001 µg/mL mAb [5]: 215 pg/mL; IL-2 (pg/mL), MLR, 0.01 µg/mL mAb [5]: 274 pg/mL; IL-2 (pg/mL), MLR, 0.1 µg/mL mAb [5]: 654 pg/mL; IL-2 (pg/mL), MLR, 1 µg/mL mAb [5]: 729 pg/mL; IL-2 (pg/mL), MLR, 10 µg/mL mAb [5]: 601 pg/mL; IFN-γ (pg/mL), T cell stimulation assay, 0.001 µg/mL mAb [21]: 5120 pg/mL; IFN-γ (pg/mL), T cell stimulation assay, 0.01 µg/mL mAb [21]: 6340 pg/mL; IFN-γ (pg/mL), T cell stimulation assay, 0.1 µg/mL mAb [21]: 9360 pg/mL; IFN-γ (pg/mL), T cell stimulation assay, 1 µg/mL mAb [21]: 8790 pg/mL; IFN-γ (pg/mL), T cell stimulation assay, 10 µg/mL mAb [21]: 13100 pg/mL; IFN-γ (pg/mL), MLR, 0.001 µg/mL mAb [13]: 9790 pg/mL; IFN-γ (pg/mL), MLR, 0.01 µg/mL mAb [13]: 10700 pg/mL; IFN-γ (pg/mL), MLR, 0.1 µg/mL mAb [13]: 21700 pg/mL; IFN-γ (pg/mL), MLR, 1 µg/mL mAb [13]: 21700 pg/mL; IFN-γ (pg/mL), MLR, 10 µg/mL mAb [13]: 16900 pg/mL
2.59 | 0.264 | 2.68 | 0.889 | 0.281 | ~2 | 2.48 | ~1 | 0.297 | 0.329 | 0.852 | 2.6 | 0.332 | 2.59 | 2.49 | 0.28 | 5090 | 11200 | 9340 | 14100 | fully human anti-PD-L1 antibody 127D2F3 (antibody, human IgG4 S228P, kappa, V domains shown, also called 127D2F3 (fully human)) VH: EVQLVESGGGLVQPGGSLRLSCVASGFTFSSYWMSWVRQAPGKGLEWVANIKQDGSEKYYVDSVKGRLTISRDNAKNSLYLQMKSLRAEDTAVYYCARDPIYSSYFDYWGQGILVTVSS VL: DIQMTQSPSSLSASVGDRVTITCRASQSISNYLNWYQQKPGKAPKLLIYAASSLQSGVPSRFSGSGSGTDFTLTISSLQPEDFAAYYCQQSYGIPFTFGPGTKVDIKR | –
